Experimental data: the supplement of paper PMC9112550, “Optimization of the antimicrobial peptide Bac7 by deep mutational scanning” (BMC Biology, 2022)

What follows are sequences tested on Escherichia coli TOP10 (assay: shrunken log2 fold change of peptide-encoding DNA abundance (4.5 h post-induction vs induction); higher = less antimicrobial activity (less host growth inhibition)). Details: time post-induction: 4.5 h; library: site-saturation at positions 5, 18, 19, 20.
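Note: peptides expressed intracellularly from a pBAD plasmid library in pooled LB shake-flask culture, induced with 0.3% L-arabinose, DNA abundance read by NGS, three biological replicates, DESeq2 with apeglm shrinkage.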

Sequence | shrunken log2 fold change
RRIRYRPPRLPRPRPRPCPTPRP | -0.0225
RRIRPRPPRLPRPRPRPFPAPRP | -0.161
RRIRSRPPRLPRPRPRPTAIPRP | -0.0172
RRIRLRPPRLPRPRPRPNNCPRP | -0.207
RRIRWRPPRLPRPRPRPETMPRP | 0.569
RRIRMRPPRLPRPRPRPEDWPRP | 3.63
RRIRPRPPRLPRPRPRPDNVPRP | 0.115
RRIRLRPPRLPRPRPRPCTSPRP | -0.114
RRIRRRPPRLPRPRPRPNHEPRP | -0.0399
RRIRYRPPRLPRPRPRPHLNPRP | -1.15
RRIRIRPPRLPRPRPRPLYMPRP | -0.918
RRIRRRPPRLPRPRPRPACWPRP | 0.626
RRIRWRPPRLPRPRPRPWMTPRP | 0.333
RRIRSRPPRLPRPRPRPGDGPRP | 0.78
RRIRRRPPRLPRPRPRPVYSPRP | -0.139
RRIRVRPPRLPRPRPRPNEKPRP | -0.0575
RRIRYRPPRLPRPRPRPFGIPRP | -0.149
RRIRWRPPRLPRPRPRPYTHPRP | -0.536
RRIRPRPPRLPRPRPRPFNQPRP | -0.695
RRIRLRPPRLPRPRPRPEAAPRP | 0.732
RRIRGRPPRLPRPRPRPGSSPRP | 0.028
RRIRARPPRLPRPRPRPGRGPRP | 0.486
RRIRFRPPRLPRPRPRPAIKPRP | -0.328
RRIRQRPPRLPRPRPRPTECPRP | 0.0119
RRIRTRPPRLPRPRPRPPEIPRP | 0.0182

Sequence | shrunken log2 fold change
RRIRARPPRLPRPRPRPRQGPRP | 0.605
RRIRDRPPRLPRPRPRPYNYPRP | -0.27
RRIRGRPPRLPRPRPRPQTWPRP | 0.0175
RRIRWRPPRLPRPRPRPLSLPRP | 0.0175
RRIRFRPPRLPRPRPRPLMYPRP | -0.323
RRIRARPPRLPRPRPRPPEMPRP | 0.515
RRIRVRPPRLPRPRPRPGLVPRP | 0.807
RRIRFRPPRLPRPRPRPWQHPRP | -0.0848
RRIRRRPPRLPRPRPRPTEAPRP | 0.0804
RRIRSRPPRLPRPRPRPYDQPRP | -0.21
RRIRTRPPRLPRPRPRPTGIPRP | 0.00119
RRIRRRPPRLPRPRPRPRSSPRP | 0.0954
RRIRMRPPRLPRPRPRPMDFPRP | -0.00448
RRIRLRPPRLPRPRPRPYTLPRP | -0.143
RRIRDRPPRLPRPRPRPMYFPRP | -0.358
RRIRERPPRLPRPRPRPHESPRP | 0.0153
RRIRVRPPRLPRPRPRPSANPRP | 0.122
RRIRTRPPRLPRPRPRPKVFPRP | -0.0334
RRIRTRPPRLPRPRPRPSGCPRP | -0.375
RRIRFRPPRLPRPRPRPWLLPRP | -0.343
RRIRTRPPRLPRPRPRPYTLPRP | -0.000759
RRIRIRPPRLPRPRPRPQYQPRP | -0.769
RRIRMRPPRLPRPRPRPMQRPRP | 0.556
RRIRMRPPRLPRPRPRPKEMPRP | 0.31
RRIRNRPPRLPRPRPRPDTEPRP | -0.0108

Sequence | shrunken log2 fold change
RRIRERPPRLPRPRPRPSFLPRP | -0.789
RRIRTRPPRLPRPRPRPKTAPRP | -0.0452
RRIRVRPPRLPRPRPRPTRVPRP | 0.0936
RRIRQRPPRLPRPRPRPSMDPRP | -0.271
RRIRARPPRLPRPRPRPGLSPRP | 0.821
RRIRPRPPRLPRPRPRPLGFPRP | 0.49
RRIRVRPPRLPRPRPRPITGPRP | -0.00538
RRIRFRPPRLPRPRPRPCFMPRP | -0.213
RRIRPRPPRLPRPRPRPKLCPRP | -0.0437
RRIRMRPPRLPRPRPRPLELPRP | 0.337
RRIRDRPPRLPRPRPRPGSQPRP | 0.0966
RRIRTRPPRLPRPRPRPLRPPRP | 0.864
RRIRIRPPRLPRPRPRPVFRPRP | -0.169
RRIRYRPPRLPRPRPRPACLPRP | -0.211
RRIRFRPPRLPRPRPRPGHAPRP | 0.192
RRIRTRPPRLPRPRPRPRGSPRP | 0.177
RRIRNRPPRLPRPRPRPTIRPRP | -0.0347
RRIRLRPPRLPRPRPRPSCLPRP | -0.392
RRIRMRPPRLPRPRPRPNSRPRP | 0.169
RRIRVRPPRLPRPRPRPIFNPRP | -0.274
RRIRARPPRLPRPRPRPTFTPRP | 0.51
RRIRPRPPRLPRPRPRPQMHPRP | 0.143
RRIRERPPRLPRPRPRPMIYPRP | -0.12
RRIRRRPPRLPRPRPRPSFMPRP | -0.106
RRIRGRPPRLPRPRPRPHIRPRP | 0.0682
